Blank lines part the entries; values can stand above or below the molecule they belong to.
Assays:
lactoperoxidase [1] = target: T1, lactoperoxidase (Bos taurus, UniProt P80025); type: biochemical
O=C(O)c1ccc(O)c(O)c1O = experiment: purified protein, by the assay type
O=C(O)c1c(O)cccc1O = experiment: purified protein, by the assay type
COc1cc(C(=O)O)ccc1O = experiment: purified protein, by the assay type
O=C(O)/C=C/c1ccc(O)cc1 = experiment: purified protein, by the assay type
O=C(O)c1ccc(O)cc1O = experiment: purified protein, by the assay type
O=C(O)c1cc(O)ccc1O = experiment: purified protein, by the assay type
[2] = system: O=C1c2c(O)cc(O)cc2O[C@H](c2ccc(O)c(O)c2)[C@H]1O; experiment: purified protein, by the assay type
[3] = system: O=C1C[C@@H](c2ccc(O)c(O)c2)Oc2cc(O)cc(O)c21; experiment: purified protein, by the assay type
O=C(O)c1cccc(O)c1 = experiment: purified protein, by the assay type
COc1ccc(C(=O)O)cc1O = experiment: purified protein, by the assay type
O=C(O)/C=C/c1cccc(O)c1 = experiment: purified protein, by the assay type
[4] = system: O=C1C[C@@H](c2ccc(O)cc2)Oc2cc(O)cc(O)c21; experiment: purified protein, by the assay type
O=C(O)c1ccccc1O = experiment: purified protein, by the assay type
OCCc1ccc(O)cc1 = experiment: purified protein, by the assay type
O=C(O)c1cc(O)c(O)c(O)c1 = experiment: purified protein, by the assay type
O=C(O)c1ccc(O)cc1 = experiment: purified protein, by the assay type
O=C(O)c1cccc(O)c1O = experiment: purified protein, by the assay type
O=C(O)c1cc(O)cc(O)c1 = experiment: purified protein, by the assay type
OCCc1ccc(O)c(O)c1 = experiment: purified protein; conditions: heme substrate channel of LPO
[5] = system: Oc1cc(O)c2c(c1)O[C@H](c1ccc(O)c(O)c1)[C@H](O)C2; experiment: purified protein; conditions: heme
[6] = system: O=c1cc(-c2ccc(O)c(O)c2)oc2cc(O)cc(O)c12; experiment: purified protein; conditions: heme
[7] = system: O=C1C[C@@H](c2ccc(O)c(O)c2)Oc2cc(O)cc(O)c21; experiment: purified protein; conditions: heme
[8] = system: O=c1c(O)c(-c2ccc(O)c(O)c2)oc2cc(O)cc(O)c12; experiment: purified protein; conditions: heme
[9] = system: O=c1cc(-c2ccc(O)cc2)oc2cc(O)cc(O)c12; experiment: purified protein; conditions: heme
[10] = system: O=C(O)/C=C/c1ccc(O)c(O)c1; experiment: purified protein; conditions: heme
O=C(O)c1ccc(O)c(O)c1 = experiment: purified protein; conditions: heme
lactoperoxidase [11] = target: T1, lactoperoxidase; conditions: read-out: Km, / µM; 80 uM H2O2, 2 mM SCN-, pH 7.4, 37 C; substrate

IC50 (lactoperoxidase [1]): 36.7 ± 9.6 µM
Molecule: O=C(O)c1c(O)cc(O)cc1O [2,4,6-trihydroxybenzoic acid]

IC50 (lactoperoxidase [1]): 0.23 ± 0.15 µM
Molecule: O=c1cc(-c2ccccc2)oc2cc(O)cc(O)c12 [chrysin]

Molecule: lactoperoxidase (Bos taurus)
Km (O=C(O)c1ccc(O)c(O)c1O): 84.8 ± 0.0 µM | kcat (O=C(O)c1ccc(O)c(O)c1O): 24.5 s⁻¹ | kcat/Km (O=C(O)c1ccc(O)c(O)c1O): 290000 M⁻¹ s⁻¹ | Km (O=C(O)c1c(O)cccc1O): 149.1 ± 51.4 µM | kcat (O=C(O)c1c(O)cccc1O): 14.8 s⁻¹ | kcat/Km (O=C(O)c1c(O)cccc1O): 100000 M⁻¹ s⁻¹ | Km (COc1cc(C(=O)O)ccc1O): 948.4 ± 0.2 µM | kcat (COc1cc(C(=O)O)ccc1O): 78.5 s⁻¹ | kcat/Km (COc1cc(C(=O)O)ccc1O): 80000 M⁻¹ s⁻¹ | Km (O=C(O)/C=C/c1ccc(O)cc1): 35.1 ± 0.1 µM | kcat (O=C(O)/C=C/c1ccc(O)cc1): 11 s⁻¹ | kcat/Km (O=C(O)/C=C/c1ccc(O)cc1): 310000 M⁻¹ s⁻¹ | Km (O=C(O)c1ccc(O)cc1O): 119.6 ± 8.3 µM | kcat (O=C(O)c1ccc(O)cc1O): 7 s⁻¹ | kcat/Km (O=C(O)c1ccc(O)cc1O): 60000 M⁻¹ s⁻¹ | Km (O=C(O)c1cc(O)ccc1O): 304.2 ± 0.1 µM | kcat (O=C(O)c1cc(O)ccc1O): 22.4 s⁻¹ | kcat/Km (O=C(O)c1cc(O)ccc1O): 70000 M⁻¹ s⁻¹ | Km [2]: 0.8 ± 0.0 µM | kcat [2]: 48.2 s⁻¹ | kcat/Km [2]: 6.3e+07 M⁻¹ s⁻¹ | Km [3]: 0.4 ± 0.0 µM | kcat [3]: 52.4 s⁻¹ | kcat/Km [3]: 1.46e+08 M⁻¹ s⁻¹ | Km (O=C(O)c1cccc(O)c1): 144.2 ± 28.9 µM | kcat (O=C(O)c1cccc(O)c1): 36.5 s⁻¹ | kcat/Km (O=C(O)c1cccc(O)c1): 250000 M⁻¹ s⁻¹ | Km (COc1ccc(C(=O)O)cc1O): 803.5 ± 147.2 µM | kcat (COc1ccc(C(=O)O)cc1O): 67.7 s⁻¹ | kcat/Km (COc1ccc(C(=O)O)cc1O): 80000 M⁻¹ s⁻¹ | Km (O=C(O)/C=C/c1cccc(O)c1): 37.8 ± 8.9 µM | kcat (O=C(O)/C=C/c1cccc(O)c1): 24 s⁻¹ | kcat/Km (O=C(O)/C=C/c1cccc(O)c1): 630000 M⁻¹ s⁻¹ | Km [4]: 0.2 ± 0.0 µM | kcat [4]: 19 s⁻¹ | kcat/Km [4]: 1.03e+08 M⁻¹ s⁻¹ | Km (O=C(O)c1ccccc1O): 1638.4 ± 439.3 µM | Km (OCCc1ccc(O)cc1): 4.5 ± 0.0 µM | kcat (OCCc1ccc(O)cc1): 39 s⁻¹ | kcat/Km (OCCc1ccc(O)cc1): 8.73e+06 M⁻¹ s⁻¹ | Km (O=C(O)c1cc(O)c(O)c(O)c1): 176.8 ± 0.0 µM | kcat (O=C(O)c1cc(O)c(O)c(O)c1): 30.9 s⁻¹ | kcat/Km (O=C(O)c1cc(O)c(O)c(O)c1): 180000 M⁻¹ s⁻¹ | Km (O=C(O)c1ccc(O)cc1): 119.6 ± 8.1 µM | kcat (O=C(O)c1ccc(O)cc1): 16.7 s⁻¹ | kcat/Km (O=C(O)c1ccc(O)cc1): 140000 M⁻¹ s⁻¹ | Km (O=C(O)c1cccc(O)c1O): 71.3 ± 1.3 µM | kcat (O=C(O)c1cccc(O)c1O): 17.9 s⁻¹ | kcat/Km (O=C(O)c1cccc(O)c1O): 250000 M⁻¹ s⁻¹ | Km (O=C(O)c1cc(O)cc(O)c1): 118.0 ± 7.9 µM | kcat (O=C(O)c1cc(O)cc(O)c1): 22.7 s⁻¹ | kcat/Km (O=C(O)c1cc(O)cc(O)c1): 190000 M⁻¹ s⁻¹ | Km (OCCc1ccc(O)c(O)c1): 1.6 ± 0.1 µM | kcat (OCCc1ccc(O)c(O)c1): 67 s⁻¹ | kcat/Km (OCCc1ccc(O)c(O)c1): 4.21e+07 M⁻¹ s⁻¹ | Km [5]: 0.6 ± 0.0 µM | kcat [5]: 41.4 s⁻¹ | kcat/Km [5]: 6.84e+07 M⁻¹ s⁻¹ | Km [6]: 0.2 ± 0.0 µM | kcat [6]: 91.6 s⁻¹ | kcat/Km [6]: 4.72e+08 M⁻¹ s⁻¹ | Km [7]: 0.358 ± 0.005 µM | Km [8]: 1.7 ± 0.2 µM | kcat [8]: 102 s⁻¹ | kcat/Km [8]: 6.07e+07 M⁻¹ s⁻¹ | Km [9]: 0.1 ± 0.0 µM | kcat [9]: 13.1 s⁻¹ | kcat/Km [9]: 1.22e+08 M⁻¹ s⁻¹ | Km [10]: 6.9 ± 0.3 µM | kcat [10]: 37.2 s⁻¹ | kcat/Km [10]: 5.4e+06 M⁻¹ s⁻¹ | Km (O=C(O)c1ccc(O)c(O)c1): 63.9 ± 51.4 µM | kcat (O=C(O)c1ccc(O)c(O)c1): 59.2 s⁻¹ | kcat/Km (O=C(O)c1ccc(O)c(O)c1): 930000 M⁻¹ s⁻¹

Molecule: COc1ccc(C(=O)O)cc1OC [3,4-dimethoxybenzoic acid]
Km (lactoperoxidase [11]): 981 ± 69.8 µM

From article PMC5669353 (Biochemistry and Biophysics Reports, 2015)
